Here are results for ten molecules from patent publication US20240294650A1 (Alector, published 2024).

In one assay the target is T1, human MerTK (human, UniProt Q12866 21-999).
T1 sequence: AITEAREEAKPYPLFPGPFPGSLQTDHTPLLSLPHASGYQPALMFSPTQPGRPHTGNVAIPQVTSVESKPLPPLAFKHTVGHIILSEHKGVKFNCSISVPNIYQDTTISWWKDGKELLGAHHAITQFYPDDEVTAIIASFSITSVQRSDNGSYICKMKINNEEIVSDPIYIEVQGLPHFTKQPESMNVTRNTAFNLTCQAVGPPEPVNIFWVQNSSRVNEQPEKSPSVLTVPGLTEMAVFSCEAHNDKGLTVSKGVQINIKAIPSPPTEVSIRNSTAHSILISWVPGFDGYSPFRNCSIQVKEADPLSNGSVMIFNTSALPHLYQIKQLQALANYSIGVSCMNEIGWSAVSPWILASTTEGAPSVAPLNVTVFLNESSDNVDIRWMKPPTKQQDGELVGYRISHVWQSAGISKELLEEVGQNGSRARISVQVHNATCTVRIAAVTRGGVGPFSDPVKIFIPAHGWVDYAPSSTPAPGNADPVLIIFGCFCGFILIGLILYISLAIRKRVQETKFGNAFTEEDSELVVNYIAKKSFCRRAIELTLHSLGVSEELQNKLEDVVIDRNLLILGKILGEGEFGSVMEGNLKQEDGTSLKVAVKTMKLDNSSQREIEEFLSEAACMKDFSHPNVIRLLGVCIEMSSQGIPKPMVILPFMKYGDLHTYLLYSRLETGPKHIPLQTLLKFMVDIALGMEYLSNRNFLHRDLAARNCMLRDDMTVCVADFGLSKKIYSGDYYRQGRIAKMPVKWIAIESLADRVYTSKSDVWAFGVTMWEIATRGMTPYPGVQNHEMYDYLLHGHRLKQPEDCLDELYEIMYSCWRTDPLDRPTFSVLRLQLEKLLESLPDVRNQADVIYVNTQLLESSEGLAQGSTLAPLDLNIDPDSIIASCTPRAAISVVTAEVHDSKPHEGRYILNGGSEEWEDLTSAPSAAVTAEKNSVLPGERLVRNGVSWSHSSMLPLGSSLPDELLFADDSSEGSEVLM
The assay is described as follows: cell-based or functional assay.

Assay [1] addresses T2, Recombinant human MerTK-human Fc Chimera protein (human, UniProt Q12866 26-499, limits assumed).
T2 construct: bought construct; also called MerTK-Fc (R&D systems, Cat #391-MR-100)
T2 sequence: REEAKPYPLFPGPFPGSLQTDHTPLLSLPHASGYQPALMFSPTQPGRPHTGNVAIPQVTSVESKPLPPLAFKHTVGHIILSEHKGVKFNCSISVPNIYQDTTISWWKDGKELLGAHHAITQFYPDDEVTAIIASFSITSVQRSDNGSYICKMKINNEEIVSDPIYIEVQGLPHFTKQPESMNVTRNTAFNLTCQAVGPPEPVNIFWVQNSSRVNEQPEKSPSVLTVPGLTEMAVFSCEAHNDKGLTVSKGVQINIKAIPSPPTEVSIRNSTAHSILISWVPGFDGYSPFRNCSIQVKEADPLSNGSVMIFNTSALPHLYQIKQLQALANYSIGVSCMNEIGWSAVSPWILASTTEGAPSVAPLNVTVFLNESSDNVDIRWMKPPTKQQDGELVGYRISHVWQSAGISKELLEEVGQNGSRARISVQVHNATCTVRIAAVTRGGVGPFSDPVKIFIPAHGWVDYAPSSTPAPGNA
The assay is described as follows: blocking ELISA, ProS-His on MerTK-Fc, Ab 66.6 nM, isotype=100%. Here is the method: Briefly, rabbit anti-human IgG antibody (Jackson ImmunoResearch, Cat #309-005-008) was coated at 2 μg/ml onto high-protein binding plates at 4° C. overnight. After washing with 0.05% Tween20 in PBS three times, 5% BSA in PBS was added for 1 hour. Recombinant human MerTK-human Fe Chimera protein (R&D systems, Cat #391-MR-100) was added at 2 μg/ml for 1 hour and plates were washed before the addition of 40 μl of anti-MerTK hybridoma supernatants and 40 μl of His tag-conjugated recombinant Gas6 (R&D systems, Cat #885-GSB-050) at 3 μg/ml or His tag-conjugated recombinant ProS (R&D systems, Cat #9489-PS-100) at 20 μg/ml. After a further incubation for 1 hour, plates were washed and incubated for 1 hour with HRP-conjugated anti-6×His tagged antibody (Abcam, Cambridge, MA, Cat #ab1187). Plates were then washed and an HRP substrate, TMB, was added to develop the plates. The reaction was stopped by adding 50 μl 2N H₂SO₄ and the OD was measured using a spectrophotometer (BioTek).
Anti-MerTK antibodies were titrated to a final concentration from 66.6 nM to 4 pM and tested against anti-human MerTK antibody M6 (disclosed in WO2016/106221) or isotype control antibody.
(In general: In an ELISA, binding on a coated surface is turned into a signal by an enzyme label.)

The target in assay [2] is T3, Full Axl (ECD domain of human Axl) (human, UniProt P30530 26-451).
T3 construct: also called human Axl ECD
T3 sequence: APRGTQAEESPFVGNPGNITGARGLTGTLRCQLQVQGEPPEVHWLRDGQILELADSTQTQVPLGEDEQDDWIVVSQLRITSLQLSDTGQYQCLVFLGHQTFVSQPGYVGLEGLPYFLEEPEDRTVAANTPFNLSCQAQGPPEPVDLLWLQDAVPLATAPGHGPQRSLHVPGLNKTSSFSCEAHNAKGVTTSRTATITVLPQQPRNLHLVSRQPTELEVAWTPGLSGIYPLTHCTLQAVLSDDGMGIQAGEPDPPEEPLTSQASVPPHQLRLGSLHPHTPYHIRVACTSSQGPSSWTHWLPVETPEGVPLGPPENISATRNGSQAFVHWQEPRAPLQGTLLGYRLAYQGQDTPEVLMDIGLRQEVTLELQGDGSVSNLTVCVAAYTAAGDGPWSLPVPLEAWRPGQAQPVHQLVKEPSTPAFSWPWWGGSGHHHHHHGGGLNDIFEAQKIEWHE
The assay is described as follows: SPR (data not shown). The method, then:
Binding of anti-MerTK antibodies of the present disclosure to these domain-swapped chimera or deletion mutants was tested by Surface Plasmon Resonance (SPR) using Carterra LSA. Purified anti-MerTK antibodies were immobilized in duplicate on a HC30M chip (Carterra) by amine coupling, following the manufacturer's instructions (described previously).
Supernatants containing the constructs were diluted 1:1 with running buffer containing 0.5 mg/mL BSA (HBS-TE, Carterra; BSA, Sigma) and injected over the immobilized antibodies. The surface was regenerated with 10 mM Glycine pH2.0 after each construct injection. Sensorgrams were analyzed using Carterra Epitope software to identify patterns of construct binding. Loss of binding to MerTK constructs with domains deleted or swapped in from Axl and/or gain of binding to Axl constructs with MerTK domains swapped in were evaluated. Data from these studies were used to construct a domain binding map for anti-MerTK antibodies and their binding to various domains of human MerTK.

B1: MTK-208 (antibody, human IgG1, V domains shown)
VH: QVQLQQPGAELVVPGASVRLSCKASGYTFINYWMHWVKQRPGQGLEWIGEIDPSDSYANYNQKFKDKSTLSLDKSSSTAYMQLSSLTSEDSAVYYCARCDYYGRLDYWGQGTTLTVSS
VL: QVVLTQSPAIMSASPGEKVTITCSASSSVSYMLWFQQKPGTSPKLWIYSTSNLASGVPARFSGSGSGTSYSLTISRLEAEDAATYYCQQRSSYPPITFGAGTKLELK
In the case of B1, the “Fold increase in PAKT over IgG control” value in the assay with human MerTK was determined as 2.6 fold. For the same molecule, in assay [1], the “Percent ProS ligand binding” value came to 71.7%.

B2: MTK-203 (antibody, human IgG1, V domains shown)
VH: QVQLQQPGAELVKPGASVKVSCKASGYTFTNYWMHWVKQRPGQGLEWIGRIHPFDTETNDNQKFKGKATLTVDKSSSTAYMQLSSLTSEDSAVYYCVIPANGGFAYWGQGTLVTVSA
VL: ETTVTQSPASLSVATGEKVTIRCITSTDIGDDMNWYQQKPGEPPKVLISEGNSLRPGVPSRFSSSGYGTDFVFTIENTLSEDVADYFCLQSDNLPLTFGSGTKLEIK
For the molecule B2, the binding result in assay [2] is listed as “no binding”.

B3: MTK-224 (antibody, human IgG1, V domains shown)
VH: QVQLQQPGAELVKPGASVKVSCKASGYTFTSYWMHWVKQRPGQGLEWIGRIHPFDSDTNYNQKFKGKATLTVDKSSSTAYMQLSSLTSEDSAVYYCSIAGFAYWGQGTLVTVSA
VL: DIVMTQSPATLSVTPGDRVSLSCRASQIISDYLNWYQQKSHESPRLLIKYASQSISGIPSRFSGSGSGSDFTLSINSVEPEDVGVYYCQNGHSFPLTFGAGTKLELK
For the molecule B3, in assay [2], the binding result is on record as “no binding”.

B4: MTK-209 (antibody, human IgG1, V domains shown)
VH: QVQLQQPGAELVKPGASVKVSCKASGYTFTNYWIHWVKQRPGQGLEWIGRIHPFDSEPNYNQKFKGKATLTVDKSSSTAYMHLTSLTSEDSAVYYCALASFAYWGQGTLVTVSA
VL: ETTVTQSPASLSMAMGEKATIRCITSTDIDDKMNWYQQKPGKPPKLLISAGNTLRPGVPSRFSSSGYGTDFVLTVENMLSEDVADYYCLQGGALPLTFGSGTKLEIK
For the molecule B4, the binding result in assay [2] was “no binding”.

B5: MTK-201 (antibody, human IgG1, V domains shown)
VH: QVQLRQSGPGLVQPSQSLSITCTVSGFSLSNYGLHWVRQSPGKGLEWLGVIWSGGITDYNAAFISRLSIIKDNSRSQVFFKMNSLQADDTAIYYCARKGHDPYAMDFWGQGTSVTVSS
VL: QIVLTQSPPIMSAFLGERVTMTCTASSSVSSSYLHWYRQMPGSSPKLWIYDTSNLASGVPARFSGSGSGTSYSLTISSMEAEDAATYYCHQYHHSPYTFGGGTKLEIK
For B5, in the assay with human MerTK, the “EC50 (nM), pAKT in SK-MEL-5 cells” value is 0.65 nM and the “Fold increase in PAKT over IgG control” value is 4.3 fold. Besides, the “Percent ProS ligand binding” value in assay [1] was 94.3%.

B6: MTK-211 (antibody, human IgG1, V domains shown)
VH: QVQLQQSGAELMKPGASVKLSCKATGYTFTGYWIEWVKQRPGHGLEWIGEILPGSGGSNYNEKFKGKATFTADTSSNTAYIQLSSLTTEDSAIYCCARGEPSYFSDAGFAYWGQGTLVTVSA
VL: QIVLTQSPAVMSASPGEKVTMTCSASSSITYMHWYQQKPGTSPKRWIYDTSKLASGVPARFSGSGSGTSYFLTISSMEAEDVATYYCHQRSTYPYTFGGGTKLEIM
Consider B6, for which, in the assay with human MerTK, the “Fold increase in PAKT over IgG control” value is 4 fold. Moreover, the “Percent ProS ligand binding” value in assay [1] came out at 106%.

B7: MTK-214 (antibody, human IgG1, V domains shown)
VH: QVQLQQPGAELVKPGASVKVSCKASGYTFTNYWMHWMKQRPGQGLEWIGRIHPFDSDTNYNEKFTDKATLTVDKSSSTAYMQLSSLTSEDSAVYYCAIGTLIYWGQGTTLTASS
VL: DILLTQSPATLSVTPGETVSLSCRASQSIYKKLHWFQQRSHRSPRLLIKFASDSISGIPSRFTGSGSGTDYTLSINSVKPEDEAIYYCLQGYSTPLTFGAGTKLELK
On to B7, for which the binding result in assay [2] is listed as “no binding”.

B8: MTK-216 (antibody, human IgG1, V domains shown)
VH: EVQLVESGGGLVKPGGSLKLSCAASGFTFSDYGMHWVRQAPEKGLEWVAFISSGSTTIYYADTVKGRFTISRDNAKNTLILQMTSLRSEDTAIYYCTRGGFHLDYWGQGTTLTVSS
VL: SIMMTQSPSSLAVSAGEKVTMGCKSSQSVLYSANQQNYLAWYQQKPGQSLKLLIYWASTRESGVPDRFTGSGSGTDFTLTISSVQAEDLAVYYCHQYFSSWTFGGGTKLEIK
Consider B8, for which, in the assay with human MerTK, the “Fold increase in PAKT over IgG control” value was 3.2 fold. For the same molecule, the “Percent ProS ligand binding” value in assay [1] is 72.8%.

B9: MTK-230 (antibody, human IgG1, V domains shown)
VH: EVQLQQSGPELVKPGASVRIPCKASGYTFSDYNMDWVKQSHGKSLEWIGNINPNIGGTIYSQKFKGKATLTVDKSSSTAYMELRSLTSEDTAVYYCARGDYGFASWGQGTLVTVSA
VL: DIVLTQSPASLTVSLGQRATISCRASRSVSTSGYSYMHWYQQKPGQPPKLLIYLASNLESGVPARFSGSRSGTDFTLNIHPVEEEDAATYYCQHSREYPFTFGSGTKLEIK
With B9, in assay [2], the binding result is “no binding”.

B10: MTK-215 (antibody, human IgG1, V domains shown)
VH: EVQLVESGGGLVKPGGSLKLSCAASGFIFSDYGMHWVRQAPEKGLEWVAYISSGSSTIYYGDTVKGRFTISRDNAKNTLFLQMTSLRSEDTAMYYCAKGGRYGAMDYWGHGTSVTVSS
VL: DIVLTQSPATLSVTPGDSVSLSCRASQSISNNLHWYQQKSHESPRLLIKNPSQSISGIPSRFGARGSGTDFTLIINSVETEDLGVYFCQQSNSWPFTFGSGTKLEIK
In the case of B10, in the assay with human MerTK, the “EC50 (nM), pAKT in SK-MEL-5 cells” value came to 208 nM and the “Fold increase in PAKT over IgG control” value was determined as 2.6 fold. For the same molecule, in assay [1], the “Percent ProS ligand binding” value stood at 81.6%.
